# Measurements as given in the nanobody polyreactivity screen of Harvey et al. (2022).
# Experiment: yeast display, Sf9 membrane polyspecificity reagent, FACS + sequencing; frameworks hold sequencing errors
# Procedure, shortened: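 Galactose induction of a Saccharomyces cerevisiae BJ5465 synthetic nanobody display library ran 36–48 hours. The cells were then stained for 1 hour at 4 °C with 10% biotinylated, detergent-solubilized Sf9 membrane reagent, pulled down on streptavidin microbeads and FACS-sorted into low and high (top ~1%) gates on expression and reagent-binding fluorescence. Labels for polyreactivity follow the gate of origin.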
row,Sequence,polyreactivity (PSR sort gate)
1,QVQLVESGGGLVQAGGSLRLSCAASGRIFVRNAMGWYRPAPGKERELVAGITRGGGTNFADSVKGSFTISRDNAKNTVYLQMNSLKPEVTAVYDCNALHRARLFGHYPYESWGHGTQVTVSS,high polyreactivity
2,QVQLVESGGGLVQAGGSLRLSCAASGRIFVRNAMGWYRQAPGKERELVAAISWSSGGPYYADSVKGRFTISRDNAKNTVYLQMNSLKPDDTAVYYCNADPSRAGDYWGQGTQVTVSS,low polyreactivity
3,QVQLVESGGGLVQAGGSLRLSCAASGRIFVRNAMGWYRQAPGKERELVADITNGGSTNYADSVKGRFTISRDNAKNTVYLQMNSLKPEDTAVYYCAADTLGVYDGDYWGQGTQVTVSS,low polyreactivity
4,QVQLVESGGGLVQAGGSLRLSCAASGRIFVRYAKGWYRQAPGKERELVAAISRSGGSTYYADSVKGRFTISRDNAKNTVYLQMNSLKPEDTAVYYCNAAYWRRYYQLEDYWGQGTQVTVSS,high polyreactivity
5,QVQLVESGGGLVQAGGSLRLSCAASGRIFVRYAMGWSRQAPGKEREMVAAISSSGGRTYYADSVKGRFTISRDNAKNTVYLQMNSLNAEDTAVYYCAARWVQYGVRYDYWGQGTQVTVSS,high polyreactivity
6,QVQLVESGGGLVQAGGSLRLSCAASGRIFVRYAMGWYRQAPGKERELVAAISKGGSSTYYADSVKGRFTISRDNAKNTVYLQMNSLKPEDTAVYYCAARVHGTGTLKYPNYYWGQGTQVTVSS,high polyreactivity
7,QVQLVESGGGLVQAGGSLRLSCAASGRIFVRYAMGWYRQAPGKERELVAAISYRGGSTYYADSVKGRFTISRDNAKNTVYLLMNSLKPEDTAVYYCAARNSYGNWSYYYWGQGTQVTLSS,high polyreactivity
8,QVQLVESGGGLVQAGGSLRLSCAASGRIFVRYAMGWYRQAPGKERELVATITKNGGRTYYADSVKGRFTISRDNAKNTVYLQMNSLKPEDTAVYYCAARPTYVADHLRYGYWGQGTQVTVSS,high polyreactivity
9,QVQLVESGGGLVQAGGSLRLSCAASGRIFVRYAMGWYRQAPGKESEFVADIDGGGGRTYADSVKGRFTISRDNAKNTVYLLMNSLKPEDTAVYYCNAYVYSIHWCDLYWSEYDYWGQGTQVTVSS,high polyreactivity
10,QVQLVESGGGLVQAGGSLRLSCAASGRIFVRYVMGWYRQAPGKERELVAAITKSGASTYYADSVKGRFTISRDNAKNTVYLQMNSLKPEDTAVYYCNRDLVDSYGYWGQGTQVTVSS,high polyreactivity
11,QVQLVESGGGLVQAGGSLRLSCAASGRIFVSNAMGWYRQAPGKERELVAAISKSGGRTYYADSVKGRFTISRVNAKNTVYLQMNSLKPEDTAVYYCAARSRVSPRYDYWGQGTQVTVSS,high polyreactivity
12,QVQLVESGGGLVQAGGSLRLSCAASGRIFVSNARGWYRQSPGKECELVAAISKSAARTAYADSVKGRFTISRDTAKNTVYLQMNSLKPEDTAVYYCNADRYRLYGESKGEGNYWGQGTQVTVSS,high polyreactivity
13,QVQLVESGGGLVQAGGSLRLSCAASGRIFVSNGMGWYRQAPGKESELVAVIRSSTGSTYYADSVKGRFTISRDNAKNTVYLQMNSLKPEDTAVYYCAAPNPFFEPSEYDYWAQGTQVTVSS,low polyreactivity
14,QVQLVESGGGLVQAGGSLRLSCAASGRIFVSYAMGWYRQAPGKERELVAAINWNGDRTYYADSVKGRFTISRDNAKNTVYLQMNSLKPEDSAVYYCNTDSILLPYDYWGQGTQVTVSS,low polyreactivity
15,QVQLVESGGGLVQAGGSLRLSCAASGRIFVSYAMGWYRQAPGKERELVAAINWNGDRTYYADSVKGRFTISRDNATNTVYLQMNSLKPEDTAVYYCNTDSILLPYDYWGQGTQVTVSS,low polyreactivity
16,QVQLVESGGGLVQAGGSLRLSCAASGRIFVSYAMGWYRQAPGKERELVAGISSSGGSTYYADSVKGRFTISRDNAKNTVYLQMNSLKPEDTAVYYCNTDQRSRMDYWGQGTQVTVSS,low polyreactivity
17,QVQLVESGGGLVQAGGSLRLSCAASGRIFVTNAMGWYRQAPGKERELVASISSGGRTHYADSVKGRFTISRDNAKNTVYLQMNSLKPEDTAVYYCAKPPLYYYPALRGEEFYYWGQGTQVTVSS,low polyreactivity
18,QVQLVESGGGLVQAGGSLRLSCAASGRIFVTNDMGWYRQAPGKETELVAAINWNGDSTNYADSVKGRFTISRDNAKNTVYLQLNSLKPEDTAVYYCAAGWFTRDTLAGYDYWGKGTQVTVSS,low polyreactivity
19,QVQLVESGGGLVQAGGSLRLSCAASGRIFVVNAMGWYRQAPGNERELVAAISSSSDSTYYADSVKGRCTISRDNAKNTVYLQMNSLKPEDTAVYYCAADYHYDGYWIYDYWGQGTQVTVSS,high polyreactivity
20,QVQLVESGGGLVQAGGSLRLSCAASGRIFVVNTMGWYRQAPGKERELVAAISFSGVSTYYADSVKGRFTISRDNAKNTVYLQMISLKPEDTAVYYCAAVPYRQYPGGGYWGQGTQVTVSS,low polyreactivity

row,Sequence,polyreactivity (PSR sort gate)
1,QVQLVESGGGLVQAGGSLRLSCAASGRIFVVYAMGWYRQEPGKERELVAAITGGGRTNYADSVKGRFTISRDNAKNTVYLHMNSLKPEATAVYYCAAGTRSDARRYYYWGQGTQVTVSS,low polyreactivity
2,QVQLVESGGGLVQAGGSLRLSCAASGRIFVWNAMGWYRQAPGKERELVAAITSSGGNTYYADSVKGRFTISRDNAKNNVYLQMNSLKQEDTAVYYCAAAGGAWARYRFNYWGQGTQVTVSS,high polyreactivity
3,QVQLVESGGGLVQAGGSLRLSCAASGRIFVWYDMGWYRQAPGKERELVAAISWGGGTNYADSVKGRFTISRDNAKNTVYLQMNSLKPEDTAVYYCAAAPSYYYFVRYVPSDIEGYWGQGTQVTVSS,low polyreactivity
4,QVQLVESGGGLVQAGGSLRLSCAASGRIFVYNAMGWYRQAPGKERELVAAITRGGSTYYADSVKGRFTISRDNAKNTVYLQMNSLNPEDTAVYYCASDYQRNDFRWYDYWGQGTQVTVSS,low polyreactivity
5,QVQLVESGGGLVQAGGSLRLSCAASGRIFVYNAMGWYRQAPGKERELVASITSSGGSTYYADSVKGRFTISRDNAKNTVYLQMNSLKPEDTAVYYCAADVQPDTRSTPEMDYWGQGTQVTVSS,low polyreactivity
6,QVQLVESGGGLVQAGGSLRLSCAASGRIFVYYAMGGYRQAPGKERELVATISTGGSTYYADSVKGRFTISRDNAKNTVYLQMNSLKPEDTAVYYCASDNVNLYLAYYYKGDYWGQGTQVTVSS,low polyreactivity
7,QVQLVESGGGLVQAGGSLRLSCAASGRIFVYYAMGWYRQAPGKERELVAAITYSVDSTYYADSVKGRFTISRDNAKNTVYLQKNSLKPEDTAVYYCATDVDWAYGYQYEDWGQGTQVPVSS,low polyreactivity
8,QVQLVESGGGLVQAGGSLRLSCAASGRIFVYYAMGWYRQAPGKERELVASISYSGASTYYADSVKGRFTISRDNAKNTVYLQMNSLKPEDTAVYYCNTDGDDFFHVIYDYWGQGTQVTVSS,low polyreactivity
9,QVQLVESGGGLVQAGGSLRLSCAASGRIFVYYTMGWYRQAPGKERELVAAISTGGRTHYADSVKGRFTISRDNAKNTVYLQMNSLKPEDTAVYYCNAASWNGGLFQTKYGYWGQGTQVTVSS,high polyreactivity
10,QVQLVESGGGLVQAGGSLRLSCAASGRIFWDNALGWYRKAPGTERELVAAISDSVVITYYADSVKGRFTISRDNAKNTVYLQMNSLKPEDSAVYYCAAGGWPYSGGWFFQPNYDYWGQGTQVTVSS,low polyreactivity
11,QVQLVESGGGLVQAGGSLRLSCAASGRIFWDNAMGWYRQAPVKERELVAAISGGASTYADSVKGRFTISRDNAKNTVYLQMNSLKAEDTSVYYCYAFQSPVEEEYYWGQGTQVTVSS,low polyreactivity
12,QVQLVESGGGLVQAGGSLRLSCAASGRIFWGNAMGWYRQAPGKERELVAAINWSGGSTYYADSVKGRFTISRDNAKNTVYLQMNTLKPEDTAVYYCAADANGIVRYYYWGQGTQVTVSS,low polyreactivity
13,QVQLVESGGGLVQAGGSLRLSCAASGRIFWGNAMGWYRQAPGKERELVAAITRRGGTTFYADSVKGRFTISRDNAKNTVYLQMNSLKPEDTAVYYCAARRYGQYDGYDSWGQGTQVTVSS,high polyreactivity
14,QVQLVESGGGLVQAGGSLRLSCAASGRIFWGSTMVWYRQAPGKEMELVAAITYRGATTYYADSVKGRFTISRDNAKNTVYLQMNSLKPEDTAVYYCAAEYYYTYGYWGQGTQVTVSS,high polyreactivity
15,QVQLVESGGGLVQAGGSLRLSCAASGRIFWHNAMGWYRQAPGKERELVAAISSRGGSTSYADSVKGRFTISRDNAKNTVYLQMNSLKPEDTAVYYCNARNQGYYRVWGYRGDYWGQGTQVTVSS,low polyreactivity
16,QVQLVESGGGLVQAGGSLRLSCAASGRIFWINAMGWYRQAPGKERELVAAITTDGGTTYYADSVKGRFTISRDNAKNTVYLQMNSLKPEDTAVYYCAADAAGQYWWQTYDYWGQGTQVTVSS,high polyreactivity
17,QVQLVESGGGLVQAGGSLRLSCAASGRIFWINAMGWYRQATGKERELVATISSGSTSYADSVKGRFTISRDNAKNTVYLQMNSLKPEDTAVYYCAVTLRYTRSGAYDYWGQGTQVTVSS,low polyreactivity
18,QVQLVESGGGLVQAGGSLRLSCAASGRIFWPNAMGWYLQAPGKESEFVAAIRWSSDRTYYADSVKGRFTISRDNAKNTVYLQMNSLKPEYTAVYYCNAVRYVISKYDYWGHGTQVTVSS,high polyreactivity
19,QVQLVESGGGLVQAGGSLRLSCAASGRIFWPYAMGWSRQAPGKERELVAAITSGGSTYYADSVKGRFTISRDNAKNTVYLQMNSLKPEDTAVYYCAKRSSGVSVPVAYGGIKRYNSWGQGTQVTVSS,low polyreactivity
20,QVQLVESGGGLVQAGGSLRLSCAASGRIFWRNAMGWSRQAPGKERELVAAISSGGSTYYADSVKGRFTISRDNAKNTVYLQMNSLKPEDTAVYYCAARSSWRGVRYDHFERVYWGQGTQVTVSS,high polyreactivity
